Source: the supplement of paper PMC11502859

Test system: HEK293T
Assay: median enrichment of reporter reads in eGFP-reduced (low/intermediate) vs eGFP-high sorted cells (eGFP-extension fusion abundance) (ratio); higher = stronger loss of eGFP-fusion protein abundance (more destabilising extension)
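Also: lentiviral eGFP-IRES-mCherry reporter pool sorted by FACS 96 h post-transduction, gated on mCherry-high cells, Illumina read counts normalized per million, median across four biological replicates.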

Substance	median enrichment
LEKPQVLLRLLSLPCQVSPVLTIQLGSTPFALLPCHTVLCLLFQVGMIMPSPANILQGPPNLIAGHSQPSESESRFLLSLPSS [PGLYRP4]	7.65
LEKPSSFVETVALQPWRRTCWYLKNGTFATQD [DOCK8]	6.15
LELLCFDS [MAP4K3]	2.88
LELLPCPSFPPCTT [FEZF2]	1.27
LEMKKDEVLTQ [DNAJC5G]	0.255
LEPAAPASHLCLERTSAACQF [ECHS1]	0.709
LEPWGWGRGCQLHSGTLGRWASERLLTGSGASRCQAASGPLGCPGQACEEGLRWGRQGAPGSRDHR [RPUSD1]	5.25
LEQ [UNC93A]	0.561
LETIMKKRVHISISKS [CTLA4]	37.7
LEVVFGVQLLPCTFSLLLSSSTPNRENLGVSGSIWALIYSPSFLSML [ZNF774]	9.71
LFCCCIYTSKGPDLLLLKLFFKTWNYKEIRSSITFDTNFYRN [TTC13]	5.88
LFD [RBM26]	1.04
LFDDRDLH [VAMP4]	0.625
LFE [OR12D2]	0.755
LFILEINLTNVMNVEKLLRGSWPLVNTREFILERNPTFVKNVAKPLSAPQPLQATREFIWKRDLTNVKNAAKPVFLRPD [ZNF727]	15.7
LFIRSHGPITITLFSAFLLSSFLLSSPLLSSPLLPSPLCFFFFFFSFLWRSFALVAQAAVQWLNLGSLQPLPPRFK [GFRAL]	7.15
LFLNALPHIFRKSRELLP [OR5AU1]	9.77
LFQPGPKPTGVCGRARTQEV [DNMT3B]	3.86
LFRCYSSLLKDDENAECLFKCF [GABRA4]	13.1
LFSFQILGTETI [FBXO4]	14.6
LFSSQLF [ADAM17]	5.62
LFSTEIQNISLTALRCVC [NIPSNAP3B]	6.41
LFVKLCLIM [GPR112]	13.7

Substance	median enrichment
LGALPGTGSLTSQD [KIF19]	0.309
LGEMSLSFLLPF [C10orf82]	3.93
LGFRSAT [KIF15]	1.28
LGGRCRKHLEQPQSHGAEGAGAAPVIGRGIPSVCSASCLLNKGLFLTHK [CUL9]	14.9
LGGVWGHPS [ZG16B]	2.14
LGHANNQSCSNFKPVTAHNRPGSELCEGP [CDON]	0.661
LGHRQESVWAGLFNMVFAVLPPWGPWSDNIVSLVRLSRCLIRTANGASPTPPRVRPPFHQRVSSQRPPASCPAAQEEKEGLNS [PDGFB]	4.11
LGKLPCRA [ZNF75D]	0.566
LGLGRAHSAG [ATPAF2]	10
LGLLALTLQPTLAVWPSPGSFPAPLPLFPVLLNSPSWRVQALGMGGTRPHSFHRALRPDTADQPHSAQEAASGVGAQRGTAAS [BAP1]	8.12
LGLLHLPPSYLVPCRAPGLFGGTLGCTSGLPAPAAWAPPS [REEP4]	5.64
LGLLPLGPLTLSGWWTTKYNPVYNLKIYFTFVLLYLFIKG [SMAD4]	5.85
LGLRVHTGWQEASKGS [SERPINH1]	4.89
LGNCWLAWHHHTATASHLLCQGGTSSAGACPVLCGRCCVLLNTAGPAITPWAWRSLGVSRCGGGQPGWPHSITGTACLGTRFP [PIGQ]	5.81
LGP [COLQ]	0.326
LGPVAGRPAPAPPPPTGVPAHSCGKGGEGRRARPEQGAGGRAQYLTRAAVLINVPMAGPRSEPASSATVTFSLRDGGGGSLSR [DUSP9]	2.08
LGQAAPVLGEGG [DEPDC5]	1.71
LGRIMASFQNSFS [OR2AG1]	7.84
LGRLCPLPASLLCFPSPVSSLPSRPRHLPSVPWLSRTFYPTVRPQRGQDKPCPDAFDRQLCVLVDRCRNKEEMESAPEKLQIQ [H6PD]	6.07
LGRTSALSDRTLRAMLPCHP [MRGPRX3]	7.42
LGSVPGWPVPITSYAHLPPPVFPPLDWWPLPWGRSPHVPAPGDRQRRQQAAFVAQQGALPSLLPSCFS [CST3]	4.44
LGSVQGLSH [CST5]	0.51
LGSWRHWRGQEG [Degron KLHDC3]	8.96
